Data published in US20250262316A1 (BIO THERA SOLUTIONS, published 2025).
Numbering of substitutions follows the chain as printed.

B1: Antibody V2 (antibody, human IgG1, kappa, V domains shown)
VH: EVQLVQSGAEVKKSGESLKISCKASGYTFTDYDINWVRQMPGKGLEWIGWIFPGDDTTKYNEKFKGQVTLSADKSTNTAYMQWSSLKASDTAMYYCARSPSFDYWGQGTLVTVSS
VL: QIVLTQSPGTLSLSPGERATLSCSASSTIGFMYWYQQKPGQAPRRWIYDTSKLASGVPDRFSVSGSGTDYTLTISRLEPEDFAVYYCHQRSSYPTFGQGTKVEIKR
notes: Humanized from chimeric antibody M1; also called humanized antibody V2
B2: Antibody V1 (antibody, human IgG1, kappa, V domains shown)
VH: B1 VH with I48M, L70I, M81L
VL: B1 VL
notes: Humanized from chimeric antibody M1; also called humanized antibody V1
B3: Antibody V5 (antibody, human IgG1, kappa, V domains shown)
VH: QVQLVQSGAEVKKPGASVKVSCKASGYTFTDYDINWVRQAPGQRLEWIGWIFPGDDTTKYNEKFKGRATLTADKSASTAYMELSSLRSEDTAVYYCARSPSFDYWGQGTLVTVSS
VL: QIVLTQSPSSLSASVGDRVTITCSASSTIGFMYWYQQKPGKAPKRWIYDTSKLASGVPSRFSVSGSGTDYTLTISSLQPEDFATYYCHQRSSYPTFGQGTKVEIKR
notes: Humanized from chimeric antibody M1; also called humanized antibody V5
B4: control Antibody M30-H1-L4 (antibody, human IgG1, kappa, V domains shown)
VH: QVQLVQSGAEVKKPGSSVKVSCKASGYTFTNYVMHWVRQAPGQGLEWMGYINPYNDDVKYNEKFKGRVTITADESTSTAYMELSSLRSEDTAVYYCARWGYYGSPLYYFDYWGQGTLVTVSS
VL: EIVLTQSPATLSLSPGERATLSCRASSRLIYMHWYQQKPGQAPRPLIYATSNLASGIPARFSGSGSGTDFTLTISSLEPEDFAVYYCQQWNSNPPTFGQGTKVEIKR
notes: Control anti-B7-H3 antibody
B5: Antibody M1 (antibody, human IgG1, kappa, V domains shown)
VH: QVQLQQSGPELVKPGASVRISCKASGYTFTDYDINWVQQRPGQGLEWIGWIFPGDDTTKYNEKFKGRATLTADKSSNTAYMQLNGLTSENSAVYFCARSPSFDYWGQGTLVTVSS
VL: QIVLTQSPAIMSASPGERVTMTCSASSTIGFMYWYQQKPGTSPKRWIYDTSKLASGVPARFSVSGSGTSYSLTISSMEAEDAATYYCHQRSSYPTFGGGTKLEIKR
notes: Chimeric antibody: murine variable regions on human IgG1 and light chain constant regions; expressed in HEK293F cells; also called chimeric antibody M1
B6: Antibody M2 (antibody, human IgG1, kappa, V domains shown)
VH: B5 VH
VL: DIKMTQSPSSMYASLGERVTITCKASQDINRFLSWFQQKPGKSPKTLIYRANRLRDGVPSRFSGNGSGQDYSLTISSLEYEDMGIYYCLQYDEFPPFTFGSGTKLEIKR
notes: Chimeric antibody: murine variable regions on human IgG1 and light chain constant regions; expressed in HEK293F cells; also called chimeric antibody M2
B7: ADC2 (control drug) (antibody, human IgG1, kappa, V domains shown)
VH: B1 VH
VL: B1 VL with V63G
modifications: MC-GGFG-DXD (Deruxtecan) conjugated after TCEP reduction; DAR (p) 3.7 for the whole antibody; sites not stated

Target: T1, Tim3 (NCBI Reference Sequence: NP_116171.3) on Tim3-CHO cells (UniProt Q8TDQ0 22-301, limits assumed)
T1 construct: whole, on cells
Test: flow cytometry on Tim3-CHO cells

binding result	Binder
no binding (tested: 100 nM)	B1
no binding (tested: 100 nM)	B2
no binding (tested: 100 nM)	B3

Target: T2, antigen hB7-H3-His (human, UniProt Q5ZPR3 29-461)
T2 construct: residues 1-28 are left out on that ground
T2 sequence: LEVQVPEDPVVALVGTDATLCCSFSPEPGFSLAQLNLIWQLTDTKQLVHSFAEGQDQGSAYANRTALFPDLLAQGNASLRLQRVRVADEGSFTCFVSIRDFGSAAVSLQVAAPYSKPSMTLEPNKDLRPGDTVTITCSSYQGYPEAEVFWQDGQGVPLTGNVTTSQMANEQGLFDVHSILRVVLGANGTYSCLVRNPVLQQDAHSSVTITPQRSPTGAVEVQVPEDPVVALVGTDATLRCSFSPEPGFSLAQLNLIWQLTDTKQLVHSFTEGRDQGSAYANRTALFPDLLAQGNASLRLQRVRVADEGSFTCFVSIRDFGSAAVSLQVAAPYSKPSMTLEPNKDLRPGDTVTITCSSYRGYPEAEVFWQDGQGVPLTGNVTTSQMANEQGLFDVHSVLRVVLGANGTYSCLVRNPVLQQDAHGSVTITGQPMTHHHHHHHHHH
Test: SPR, BiaCore T200, antibody captured on Protein A chip, hB7-H3-His as analyte, 1:1 model

Kd [nM]	koff [s⁻¹]	kon [M⁻¹ s⁻¹]	Binder
0.986	0.00024	244000	B4
0.372	0.000279	750000	B5
383	0.0491	128000	B6

Target: T1, Tim3 (NCBI Reference Sequence: …)
Test: flow cytometry on Tim3-CHO cells, PE anti-human IgG Fc secondary

binding result	Binder
no binding (tested: 100 nM)	B4
no binding (tested: 100 nM)	B5

Target: T3, B7-H3 on MDA-MB-468 cells (human, UniProt Q5ZPR3)
T3 construct: endogenous, on the cell surface
T3 sequence (cell surface antigen, looked up): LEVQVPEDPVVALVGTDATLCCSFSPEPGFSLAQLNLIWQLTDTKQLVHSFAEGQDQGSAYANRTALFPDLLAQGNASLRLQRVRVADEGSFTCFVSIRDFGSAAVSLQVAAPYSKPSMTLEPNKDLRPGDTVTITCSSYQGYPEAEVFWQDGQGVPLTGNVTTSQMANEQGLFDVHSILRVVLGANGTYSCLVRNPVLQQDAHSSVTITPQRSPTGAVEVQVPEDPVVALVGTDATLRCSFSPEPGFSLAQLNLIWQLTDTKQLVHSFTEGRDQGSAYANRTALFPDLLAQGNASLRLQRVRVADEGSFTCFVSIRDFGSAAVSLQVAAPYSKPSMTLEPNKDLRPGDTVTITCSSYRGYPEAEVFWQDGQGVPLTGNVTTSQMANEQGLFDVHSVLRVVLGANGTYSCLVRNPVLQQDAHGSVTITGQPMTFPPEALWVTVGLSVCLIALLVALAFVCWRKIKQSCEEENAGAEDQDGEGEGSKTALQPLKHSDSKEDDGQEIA
Test: flow cytometry on MDA-MB-468 cells; blank V2-R 0.9%

% of cells in gate V1-R at 0.411 nM [%]	% of cells in gate V1-R at 1.23 nM [%]	% of cells in gate V1-R at 3.7 nM [%]	% of cells in gate V1-R at 11.11 nM [%]	% of cells in gate V1-R at 33.33 nM [%]	% of cells in gate V1-R at 100 nM [%]	Binder
1.2	1.3	60.1	97.8	99.7	99.4	B1
1.4	8.6	92.7	99.5	99.6	99.7	B2
31.6	73.5	92.6	99.3	99.6	99.7	B3
1.1	4	38.4	97.2	98.8	99.3	B4
26.5	93.1	98.7	99.5	99.7	99.7	B5

Target: T1, Tim3 (NCBI Reference Sequence: …)
Test: flow cytometry on Tim3-CHO cells; blank P3 0.2%; the filing says V1-V5 did not bind

% of cells in gate P3 at 100 nM [%]	Binder
1.8	B1
1.7	B2
0.1	B3

Target: T4, hB7-H3-Fc
T4 construct: also called antigen hB7-H3-Fc
T4 sequence (fusion chain, as listed by the source limits assumed): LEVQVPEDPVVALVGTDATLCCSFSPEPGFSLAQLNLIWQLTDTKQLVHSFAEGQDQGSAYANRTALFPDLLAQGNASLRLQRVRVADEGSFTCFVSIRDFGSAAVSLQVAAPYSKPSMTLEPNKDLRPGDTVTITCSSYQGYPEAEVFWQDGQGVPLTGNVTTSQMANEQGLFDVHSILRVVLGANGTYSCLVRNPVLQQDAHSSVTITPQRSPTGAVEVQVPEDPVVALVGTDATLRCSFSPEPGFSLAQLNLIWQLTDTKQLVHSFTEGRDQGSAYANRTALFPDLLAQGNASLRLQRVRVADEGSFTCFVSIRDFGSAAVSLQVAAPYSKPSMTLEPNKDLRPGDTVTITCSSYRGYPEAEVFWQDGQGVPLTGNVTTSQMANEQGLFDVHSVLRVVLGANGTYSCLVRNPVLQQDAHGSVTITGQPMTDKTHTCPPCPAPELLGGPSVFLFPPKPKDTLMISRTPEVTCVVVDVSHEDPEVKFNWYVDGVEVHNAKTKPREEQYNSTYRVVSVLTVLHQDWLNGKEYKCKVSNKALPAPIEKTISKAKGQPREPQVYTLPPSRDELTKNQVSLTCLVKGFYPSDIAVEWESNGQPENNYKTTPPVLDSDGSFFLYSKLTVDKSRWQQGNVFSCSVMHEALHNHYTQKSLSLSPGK
Test: ELISA on coated hB7-H3-Fc (2 ug/mL), HRP anti-human kappa secondary, A450, antibody from 300 nM in 3-fold dilutions; axis 'Concentration' has no unit, nM from p-1066

EC50 [nM]	Binder
2.66	B1
3.95	B2
8.24	B3
3.73	B4
3.69	B5

Target: T5, Lag3 (NCBI Reference Sequence: NP_002277.4) on Lag3-CHO cells (UniProt P18627 23-525, limits assumed)
T5 construct: whole, on cells
T5 sequence (looked up): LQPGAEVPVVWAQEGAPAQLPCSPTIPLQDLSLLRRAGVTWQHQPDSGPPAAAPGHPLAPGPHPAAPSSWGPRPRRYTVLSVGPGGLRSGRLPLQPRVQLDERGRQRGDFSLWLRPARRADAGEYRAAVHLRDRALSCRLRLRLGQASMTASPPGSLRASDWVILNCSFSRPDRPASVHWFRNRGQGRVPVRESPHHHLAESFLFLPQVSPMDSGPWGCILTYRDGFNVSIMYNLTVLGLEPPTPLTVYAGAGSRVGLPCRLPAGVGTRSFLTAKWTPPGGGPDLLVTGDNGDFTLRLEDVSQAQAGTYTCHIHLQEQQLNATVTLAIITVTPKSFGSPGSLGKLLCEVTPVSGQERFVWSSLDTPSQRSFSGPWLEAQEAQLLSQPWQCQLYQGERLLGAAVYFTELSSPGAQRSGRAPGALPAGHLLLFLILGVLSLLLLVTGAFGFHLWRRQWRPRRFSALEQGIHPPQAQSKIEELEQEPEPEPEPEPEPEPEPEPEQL
Test: flow cytometry on Lag3-CHO cells, PE anti-human IgG Fc secondary

binding result	Binder
no binding (tested: 100 nM)	B4
no binding (tested: 100 nM)	B5

Target: T6, VISTA (NCBI Reference Sequence: NP_071436.1) on VISTA-CHO cells (UniProt Q9H7M9 33-311, limits assumed)
T6 construct: whole, on cells
Test: flow cytometry on VISTA-CHO cells, PE anti-human IgG Fc secondary

binding result	Binder
no binding (tested: 100 nM)	B4
no binding (tested: 100 nM)	B5

Target: T6, VISTA (NCBI Reference Sequence: …)
Test: flow cytometry on VISTA-CHO cells; blank P3 0.1%; the filing says V1-V5 did not bind

% of cells in gate P3 at 100 nM [%]	Binder
1.8	B1
0.9	B2
0.2	B3

Target: T6, VISTA (NCBI Reference Sequence: …)
Test: flow cytometry on VISTA-CHO cells

binding result	Binder
no binding (tested: 100 nM)	B1
no binding (tested: 100 nM)	B2
no binding (tested: 100 nM)	B3

Target: T5, Lag3 (NCBI Reference Sequence: …)
Test: flow cytometry on Lag3-CHO cells

binding result	Binder
no binding (tested: 100 nM)	B1
no binding (tested: 100 nM)	B2
no binding (tested: 100 nM)	B3

Target: T5, Lag3 (NCBI Reference Sequence: …)
Test: flow cytometry on Lag3-CHO cells; blank P3 0.5%; the filing says V1-V5 did not bind

% of cells in gate P3 at 100 nM [%]	Binder
5.6	B1
3.2	B2
0.4	B3

Target: T3, B7-H3 on MDA-MB-468 cells
Test: flow cytometry on MDA-MB-468 cells, PE anti-human IgG Fc secondary, antibody from 100 nM in 3-fold dilutions; axis 'Concentration' has no unit, nM from p-1056

EC50 [nM]	Binder
8.54	B4
1.54	B5
69.3	B6

Target: T7, B7-H3 on Calu-6 cells (UniProt Q5ZPR3 29-534, limits assumed)
T7 sequence (looked up): T3 sequence (cell surface antigen, looked up)
Test: cell-based or functional assay

Binder	IC50 (nM), in-vitro cytotoxicity, CCK8 [nM]
B7	68.8

Target: T8, B7-H3 (NCBI Reference Sequence: NP_001019907.1) on CHO-K1-B7-H3 cells (human, UniProt Q5ZPR3 29-534)
T8 sequence: T3 sequence (cell surface antigen, looked up)
Test: cell-based or functional assay

Binder	IC50 (nM), in-vitro cytotoxicity, CCK8 [nM]
B7	0.77
